According to PMC11252482 (Acta Pharmaceutica Sinica. B, 2024):
Numbering of substitutions follows the chain as printed. Names and notes keep the numbering of the source. Blank lines part the entries; values can stand above or below the binder they belong to.

Biological target: His-PKM2, purified recombinant (UniProt P14618-1 1-531)
Assay: pull-down

His-PKM2, purified recombinant, sequence (P14618 whole entry): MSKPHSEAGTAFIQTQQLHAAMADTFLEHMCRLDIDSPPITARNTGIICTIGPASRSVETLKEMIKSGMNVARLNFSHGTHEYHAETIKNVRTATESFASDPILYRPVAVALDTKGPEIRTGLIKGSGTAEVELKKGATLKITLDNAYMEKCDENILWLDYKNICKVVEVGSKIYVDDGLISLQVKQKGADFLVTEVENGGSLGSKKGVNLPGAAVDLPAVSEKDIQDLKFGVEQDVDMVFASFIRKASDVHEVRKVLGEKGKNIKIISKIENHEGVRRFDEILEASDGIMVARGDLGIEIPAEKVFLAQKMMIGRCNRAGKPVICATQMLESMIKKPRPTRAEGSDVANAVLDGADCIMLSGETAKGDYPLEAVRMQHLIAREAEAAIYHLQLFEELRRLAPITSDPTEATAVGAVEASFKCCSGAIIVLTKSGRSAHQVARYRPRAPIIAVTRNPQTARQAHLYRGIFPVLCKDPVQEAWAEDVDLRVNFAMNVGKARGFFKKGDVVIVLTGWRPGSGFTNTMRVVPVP

- binding result: binds
B1: GST-KHK-A (enzyme)
chain: MEEKQILCVGLVVLDVISLVDKYPKEDSEIRCLSQRWQRGGNASNSCTVLSLLGAPCAFMGSMAPGHVADFVLDDLRRYSVDLRYTVFQTTGSVPIATVIINEASGSRTILYYDRSLPDVSATDFEKVDLTQFKWIHIEGRNASEQVKMLQRIDAHNTRQPPEQKIRVSVEVEKPREELFQLFGYGDVVFVSKDVAKHLGFQSAEEALRGLYGRVRKGAVLVCAWAEEGADALGPDGKLLHSDAFPPPRVVDTLGAGDTFNASVIFSLSQGRSVQEALRFGCQVAGKKCGLQGFDGIV

- binding result: binds
B2: GST-KHK-A G257R (enzyme)
chain: B1 chain with G257R
